What was measured:
[1] = target: CD47 on lymphoma cell lines Raji, Daudi and Romas (UniProt Q08722); assay: flow cytometry, Raji cells incubated with CD19-s47-CART supernatant, detected with anti-HA-APC
[2] = target: CD47 on lymphoma cell lines Raji, Daudi and Romas (UniProt Q08722); assay: flow cytometry, Daudi cells incubated with CD19-s47-CART supernatant, detected with anti-HA-APC
[3] = target: CD47 on lymphoma cell lines Raji, Daudi and Romas (UniProt Q08722); assay: flow cytometry, Romas cells incubated with CD19-s47-CART supernatant, detected with anti-HA-APC

Sequence of UniProt Q08722 (Q08722 19-323 limits assumed): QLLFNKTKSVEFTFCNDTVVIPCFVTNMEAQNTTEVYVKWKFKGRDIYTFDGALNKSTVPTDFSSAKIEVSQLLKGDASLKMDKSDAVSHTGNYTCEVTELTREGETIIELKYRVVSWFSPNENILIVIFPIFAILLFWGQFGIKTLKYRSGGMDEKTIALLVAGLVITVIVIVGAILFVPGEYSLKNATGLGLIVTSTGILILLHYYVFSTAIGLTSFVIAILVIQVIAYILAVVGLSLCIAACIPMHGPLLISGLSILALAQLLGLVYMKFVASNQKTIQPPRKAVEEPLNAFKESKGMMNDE

结合率 [1]: 100 %
结合率 [2]: 100 %
结合率 [3]: 100 %
B1: 外泌蛋白s47 (抗CD47单链抗体, CD47 ScFv, 末尾连接HA标签) (scFv)
scFv: DVVMTQSPLSLPVTPGEPASISCRSSQSIVYSNGNTYLGWYLQKPGQSPKLLIYKVSNRFSGVPDRFSGSGSGTDFTLKISRVEAEDVGVYHCFQGSHVPYTFGGGTKVEIKGGGGSGGGGSGGGGSQVQLVQSGAEVKKPGASVKVSCKASGYTFTNYNMHWVRQAPGQGLEWIGTIYPGNDDTSYNQKFKDKATLTADKSTSTAYMELSSLRSEDTAVYYCARGGYRAMDYWGQGTLVTVSSYPYDVPDYA

— CN114573710A
